The target of this test is T1, Recombinant mouse CMG helicase (CDC45‐MCM‐GINS) (mouse, UniProt Q9Z1X9 1-566; P97310 1-904; P25206 1-812; P49717 1-862; P49718 1-734; P97311 …).
T1 construct: CDC45, mouse; MCM2, mouse; MCM3, mouse; MCM4, mouse; MCM5, mouse; MCM6, mouse; MCM7, mouse; PSF1 (GINS subunit), mouse; fourth GINS subunit, mouse; PSF3 (GINS subunit), mouse; SLD5 (GINS subunit), mouse; The complex was captured on IgG Sepharose and released with TEV protease, so one subunit carried a cleavable tag; source: budding yeast strain YCE1259 co-expressing the 11 subunits, purified (IgG …)
The test can be described thus: co-IP; purified recombinant mouse DONSON and CMG incubated in 25 mM Hepes‐KOH pH 7.6, 200 mM KOAc, 0.02% NP‐40, 10 mM MgOAc, 1 mM DTT, 0.1 mg/ml BSA for 30 min on ice; CMG isolated on magnetic beads coupled to MCM6 antibody, 1 h on ice; immunoblotting (Fig 1C). The settings on record: both partners purified. (A western blot detects proteins with antibodies after separation by electrophoresis.)

B1: Recombinant mouse DONSON (natural protein, UniProt Q9QXP4 1-560, looked up)
chain: MAVSVPGYSPSFKRPPETVRLRRKRSRDHGAAVPASLPEPAPRRAALAAGLPLRPFPTAGGRGGAAATIARRNPFARLDNRPRVSDEASEEPLRGPQGASGPLLDSNEENNLLWEDTSSHERTGTELSQSQRVSLSESDTWSSDGTELPVDWSIKTRLLFTSSQPFSWADHLKAQEEAQGLVQHCRATEVTLPQSIQDPKLSTALRCAFQQALVYWLHPAFSWLPLFPRIGADRKMAAKTSPWSADETLQHALMSDWSVSFTSLYNLLKTKLCPYFYVCSYQFTVLFRAAGLAGSSVITALISPTTRGLREAMRNEGIEFSLPLLEEIGHKKKVRDPSLESEEEQAVSDEDEEESFSWLEEIGVQDQIKKPDVISIKLRKEKHEVQMDHRPESVVLVKGLNTFKLLNFLINCKSLVATSGAQAGLPPTLLSPIAFRGASMQMLKARSSNVKTQALSGYRDKFSLDITGPVMPHALHSMSMLLRSSQRGSFSAGLYAHEPTAVFNVGLSLDKELDRKVAREDLANCGLHPKTLEQLSQRPVLGKSSLRSVEMSDYILSWRS
notes: DONSON, mouse; also called His‐SUMO‐DONSON (before cleavage); source: E. coli Rosetta (DE3) pLys, purified (Ni‐NTA, ULP1 cleavage, Superdex 200)
As to B1, the binding result was “binds”.

Source of the values: PMC10626419, “DONSON is required for CMG helicase assembly in the mammalian cell cycle” (EMBO Reports, 2023).
